Series [1] has as its target T1, LASV NP-C (catalytically active exoribonuclease domain) (Lassa virus, UniProt P13699 364-569). The series is described as follows: X-ray crystallography, 1.68 A; […], pH 5.5, room temperature; […]. Conditions: protein: recombinant; 5' overhang 4 nt on complementary strand.
Series [2] deals with T1, LASV NP-C (catalytically active …). The series is described as follows: […], pH 5.5, room temperature; […]. Conditions: protein: recombinant; blunt; self-complementary, 2 copies of one strand.

Experimental findings from paper PMC3675627, “Structures of Arenaviral Nucleoproteins with Triphosphate dsRNA Reveal a Unique Mechanism of Immune Suppression*” are described below.

T1 sequence (P13699 364-569): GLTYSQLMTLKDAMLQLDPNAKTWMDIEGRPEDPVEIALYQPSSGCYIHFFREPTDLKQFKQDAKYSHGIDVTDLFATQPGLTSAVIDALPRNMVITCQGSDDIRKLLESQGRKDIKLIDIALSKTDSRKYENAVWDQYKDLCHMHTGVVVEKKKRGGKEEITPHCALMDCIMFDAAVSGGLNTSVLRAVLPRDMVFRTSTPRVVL

B1: cleaved intermediate of the 5'-ppp dsRNA (4-nt cleaving strand, 8-nt complementary strand) (dsRNA)
RNA 1: GGGC
RNA 2: GGGCGCCC
modifications: 5'-triphosphate
On to B1, for which the binding result in series [1] is “binds”.

B2: 8-bp 5'-ppp dsRNA (input) (dsRNA)
RNA 1: GGGCGCCC
RNA 2: GGGCGCCC
modifications: 5'-triphosphate
B2: the binding result in series [2] is given as “binds”.
